# Source: patent publication US6372459B1, “N-acetyl amino acid racemase” (Degussa AG, priority 1999, dated 2002)
# Key:
# [1] = standard enzyme test for racemase (AAR) activity, HPLC detection; type: biochemical, Amycolatopsis orientalis subspecies lurida; settings: N-unprotected amino acids as substrate
# [2] = as above; type: biochemical, Amycolatopsis orientalis subspecies lurida
# Description: The AAR activity was followed up in a coupled enzymatic assay (Diagram 1), in that the formation of a deacetylated amino acid from an N-acetyl-D-amino acid, methionine here, was detected using the HPLC system I. The L-specific […] from pig kidneys or Aspergillus oryzae served as the auxiliary enzymes. [drawing 1]
# Further characterization of the AAR took place using the HPLC system II. Using this system, it was possible to study the activity of the AAR directly. In this way, it was possible to do without the auxiliary enzyme, the acylase, so that it was possible to avoid disruptive interference activity.
# Crude extracts of the superexpression clone, […]. purified enzyme fractions, were used in an enzyme test, in that it was possible to detect the formation of L-methionine from N-acetyl-D-methionine (see Diagram 1), via HPLC:
# The standard enzyme test (modified according to Tokuyama et al., Appl. Microbiol. Biotechnol. (1994), 40, 835-840; ibid., Appl. Microbiol. Biotechnol. (1995a), 42, 853-859), was composed as follows:
# Solvent: Tris/HCl, pH 7.5, 50 mM
# N-acetyl-D-methionine 25 mM
# Acylase I (ASch or AAsp) 1 U
# Protein 2-150 μg purified protein or total protein
# In this connection, acylase I and Co^2+ are present in excess, so that the AAR reaction is the step that determines the speed. Incubation took place for 10-40 min at 30° C. The reaction was then stopped by boiling for 3 min. Analysis of the reaction products took place using HPLC (System I).
# Unless mentioned otherwise, acylase I from pig kidneys (ASch) was used in the enzyme test, and Co^2+, was used as the ion (CoCl2×6H2O). Alternatively, however, acylase I from Aspergillus oryzae (AAsp) was also used.
# In assays that were analyzed using the HPLC system II, the acylase could be left out, since it is possible to separate and analyze N-acetyl amino acids directly, enantioselectively, with this system.
# Other than Co^2+ (CoCl2×6H2O), other bivalent ions, such as MnCl2×4H2O, […], and MgCl2×6H2O were used in various concentrations (0.1-10 mM).
# Substrate inhibition was tested in that the activity of the AAR was mixed with 25 to 400 mM N-acetyl-D-methionine as the substrate.
molecule,measurement,setting,value
"AAR from A. orientalis subspecies lurida: N-acetyl amino acid racemase (SEQ ID NO: 2) from Amycolatopsis orientalis subspecies lurida, natural or recombinant enzyme (protein) VKLSGVELRRVRMPLVAPFRTSFGTQSERELLLVRAVTPAGEGWGECVAMEAPLYSSEYNDAAEHVLRNHLIPALLAAEDVTAHKVTPLLAKFKGHRMAKGALEMAVLDAELRAHDRSFAAELGSTRDSVACGVSVGIMDSIPHLLDVVGGYLDEGYVRIKLKIEPGWDVEPVRQVRERFGDDVLLQVDANTAYTLGDAPLLSRLDPFDLLLIEQPLEEEDVLGHAELAKRIRTPICLDESIVSAKAAADAIKLGACQIVNIKPGRVGGYLEARRVHDVCAAHGIAVWCGGMIETGLGRAANVALASLPGFTLPGDTSASGRFYRTDITEPFVLDAGHLPVPTGPGLGVTPIPDLLDEVTTEKAWIGS",conversion of amino acids not protected with N-acetyl,[1],does not convert
same,conversion of amino acids not protected with N-acetyl,[1]; listed as AAR,not converted
same,optimum pH,[2],8
same,increase in the activity as compared with the activity without metal ion,[2]; 1 mM CoCl2×6H2O in the assay,1250%
same,specific AAR activity after purification,[2]; 2 mM CoCl2×6H2O in the assay,30.6 U/mg
same,specific activity higher than the one found for racemase by Tokuyama and Hatano,[2]; 2 mM CoCl2×6H2O in the assay,approximately 30.8%
same,activity,[2]; 10 mM CoCl2×6H2O in the assay,37.5 U/mg
same,activity with Mg in comparison with cobalt substitution,"[2]; MgCl2×6H2O at 10 mM, standard enzyme assay",about 40%
same,activity with Mn in comparison with cobalt substitution,"[2]; MnCl2×4H2O at 10 mM, standard enzyme assay",about 40%
same,substrate concentration at which substrate inhibition occurs,"[2]; N-acetyl-D-methionine as substrate, 25 to 400 mM tested",greater than 200 mM
same,AAR activity in crude extracts of the expression clone,[2]; crude extracts of E. coli BL21 (DE3) with pAAR3-21I,0.6-1.2 U/mg total protein
same,more active than the racemase from A. sp. TS-1-60,[2]; same CoCl2×6H2O concentration in the assay,152%
